Experimental findings from the nanobody polyreactivity screen of Harvey et al. (2022) are described below.

The nature of this series: yeast display, Sf9 membrane polyspecificity reagent, FACS + sequencing; frameworks hold sequencing errors. In short, it runs like this:
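In a synthetic yeast display library (Saccharomyces cerevisiae BJ5465), nanobody expression was induced with galactose for 36–48 hours. FACS gates were set low and high (top ~1%) using anti-HA fluorescence for expression and streptavidin fluorescence for binding of the Sf9 membrane reagent. Each polyreactivity label is drawn from the gate of origin.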
For the sequence “QVQLVESGGGLVQAGGSLRLSCAASGSILNLNAMGWYRQAPGKERELVAAIRGGGRTNYADSVKGRFTISRDNAKNTVYLQMNSLKPEDTAVYYCAARITRPLTGYDYWGQGTQVTVSS”, the “polyreactivity (PSR sort gate)” value is “high polyreactivity”. For the sequence “QVQLVESGGGLVQAGGSLRLSCAASGSILNSYAMGWYRQAPVKERELVARITGDGGITYYADSVKGRFTISRDNAKNTVYLQMNSLKPEDTAVYYCNAEVVALRRDTIYDYWGQGTQVTVSS”, the “polyreactivity (PSR sort gate)” value was “low polyreactivity”. Consider “QVQLVESGGGLVQAGGSLRLSCAASGSILPGNTMGWYRQAPGKERELVASISNTGGNTYYADSVKGRFTISRDNAKNTVYLQMNSLKPEDTAVYYCAARFSLWFPTVYWEGILDYWGQGTQVTVSS”, for which the “polyreactivity (PSR sort gate)” value was “low polyreactivity”.

For the sequence “QVQLVESGGGLVQAGGSLRLSCAASGSILPLYAMGGYRQAPGKERELVATISNAGSTTYADSVKGRFTISRDNAKNTVYLQMNSLKPEVTAVYYCNAESEWGWVYVGYDYWGQGTQVTVSS”, the “polyreactivity (PSR sort gate)” value was “low polyreactivity”. The value for “QVQLVESGGGLVQAGGSLRLSCAASGSILPVYAMGWYRQAPGKERELVAAISVSGGSTRYADSVKGRFTISRDNAKNTVYLQMNSLKPEDTAVYYCAARYRYSYGYWGQGTQVTVSS” was “high polyreactivity”; that for “QVQLVESGGGLVQAGGSLRLSCAASGSILPVYVMGWYRQAPGKERELVAAISSGGSTTYADSVKGRFTISRDNAKNTVYLQMNSLKPEDTAVYYCNADVVRGYSYIYRWPFRYAYDYWGQGTQVTVSS” was “low polyreactivity”.

Turning to “QVQLVESGGGLVQAGGSLRLSCAASGSILQPNAMGWYRQAPGKERELVASITFSAGRTYYADSVKVRFTISRDNAKNTVYLQMNCLKPEDTAVYYCKAASDYRSSDYDYWGQGTQVTVSS”, the “polyreactivity (PSR sort gate)” value is recorded as “low polyreactivity”. Regarding “QVQLVESGGGLVQAGGSLRLSCAASGSILREYTMGWSRQAPGKEMELVAAITYSGDSTYYADSVKGRFTISRDNAKNTVYLHMNSLKPEDTAVYYCNKKYRSRWQGPFDYWGQGTLVTVSS”, the “polyreactivity (PSR sort gate)” value is on record as “high polyreactivity”. Turning to “QVQLVESGGGLVQAGGSLRLSCAASGSILRPNAMGWYRQAPGKERELVAAITTSGGSTYYADSVKGRFTISRDNAKNTVYLQMNSLKPEDTAVYYCAARRQRDRYGYWGQGTQVTVSS”, the “polyreactivity (PSR sort gate)” value is reported as “high polyreactivity”. Under “QVQLVESGGGLVQAGGSLRLSCAASGSILRRYAMGWYRQAPGKEREFVAAISYSGSRTYYADSVKGRFTISRDNAKNTVYLQMNSLKPEDTAVYFCAADSYGSRYEYWGQGTQVTVSS” stands “high polyreactivity”; under “QVQLVESGGGLVQAGGSLRLSCAASGSILRVYAMGWYRQAPGKERELVAAISWGDGRTYYADSVKGRFTISRDNAKNTDYLQMNSLKPEDTAVYYCNADVFIQYWGVLIREYDYWGQGTQVTVSS”, “high polyreactivity”; under “QVQLVESGGGLVQAGGSLRLSCAASGSILRYYAMGWYRQAPGKEREFVAAISWSGTSTYYADSVKGRFTISRDNAKNTVYLQMNSLKPEDTAVYYCAARTYYVPYYYWGQGTQVTVSS”, “high polyreactivity”.

Regarding “QVQLVESGGGLVQAGGSLRLSCAASGSILSGYAMGWYRQAPGKERELVAAITSGGDTNYADSVKGRFTISRDNAKNTVYLQMNSLKPEDTAVYYCNRGGDFRIAYYDPMDYWGQGTQVTVSS”, the “polyreactivity (PSR sort gate)” value is on record as “low polyreactivity”. The value for “QVQLVESGGGLVQAGGSLRLSCAASGSILSSYAMGWYRQAPGKERELVAAISWRGGPTYYADSVKGRFTISRDNAKNTVYLQMNSLKPEDTAVYHCAAEFYDHPWLYDYWGQGTQVTVSS” was “low polyreactivity”; that for “QVQLVESGGGLVQAGGSLRLSCAASGSILSWYAMGWYRQAPGKERELVAAITGAGSTNYADSVKGRFTISRDNAKNTVYLQMNSLKPEDTAVYYCAADGSPWSWYSDGYWGQGTQVTVSS” was “low polyreactivity”; that for “QVQLVESGGGLVQAGGSLRLSCAASGSILSWYAMGWYRQAPGKERELVAAITGSGGTTYADSVKWRFTISRDNAKNTVYLQMNSLKPEDTAVYYCAADYLGIYDYWGQGTQVTVSS” was “high polyreactivity”. Under “QVQLVESGGGLVQAGGSLRLSCAASGSILSYNTMGWYRQAPGKEREFVAGITYSGSRTYYADSVKGRFTISRDNAKNPVYLQMNSLKPEDTAVYYCAAQYWQGDYDYWGQGTQVTVSS” stands “high polyreactivity”.

Take “QVQLVESGGGLVQAGGSLRLSCAASGSILSYYAMGWYRQAPGKERELVAAITGGGSTYYADSVKGRFTISRDNAKNTVYLQMNCLKPEVTAVYYCAALWWTYGIGYGYWGQGTLVTVSS”: the “polyreactivity (PSR sort gate)” value is recorded as “high polyreactivity”. Regarding “QVQLVESGGGLVQAGGSLRLSCAASGSILTDNAMRWYRQAPGKERELVAAITSGGSTYYADSVKGRFTISRDNAKNTVYLQMNSLKPEDTAVYYCNADPYTYSYGMYYWGQGTQVTVSS”, the “polyreactivity (PSR sort gate)” value is recorded as “low polyreactivity”. Under “QVQLVESGGGLVQAGGSLRLSCAASGSILTINAMGWYRQAPGKERELVAAITGNGGSTDYADSVKGRFTISRDTAKNTVYLQMNSLKPVDTAVYYCAARLYYFGRSGVKYRDGYWGQGTQVTVSS” stands “high polyreactivity”; under “QVQLVESGGGLVQAGGSLRLSCAASGSILTINAMGWYRQAPGKERELVARITISSGSTYYADSVKGRFTISRDNAKNTVYLQMNSLKPEDTAVYYCAVDTSYSDRYDYWGQGTQVTVSS”, “low polyreactivity”.

With “QVQLVESGGGLVQAGGSLRLSCAASGSILTRYAMGWYRQAPGKERELVAANTYSGDSTYYADSVKGRFTISRDNAKNTVYLQMNSLKPEDTAVYYCAARKYYARYYWGQGTQVTVSS”, the “polyreactivity (PSR sort gate)” value is given as “high polyreactivity”. Under “QVQLVESGGGLVQAGGSLRLSCAASGSILVQNAMGWYRQAPGKERELVAVINSGDSTNYADSVKGRFTISRDNAKNTVFLQMNSLKPEDTAVYYCAVDDVSYYYLRAYNYELSWYGSGLDYWGQGTQVTVSS” stands “low polyreactivity”.

Regarding “QVQLVESGGGLVQAGGSLRLSCAASGSILVSNDMGWYRQAPGKERELVAAISWSGGSTYYADSVKGRFTISRDNAKNTVYLQMNSLKPEDTAVYYCATGVALRYGYWGQGTQVTVSS”, the “polyreactivity (PSR sort gate)” value is “low polyreactivity”.

Take “QVQLVESGGGLVQAGGSLRLSCAASGSILVTYAMGWYRQAPGKERELVAAISRGGRTYYADSVKGRFTISRDNAKNTVYLQMNSLKPEDTAVYYCNADRVTFSWPVNYYWVDYWGQGTQVTVSS”: the “polyreactivity (PSR sort gate)” value is on record as “high polyreactivity”. Under “QVQLVESGGGLVQAGGSLRLSCAASGSILWENAKGWYRQAPGKERELVATISVSGGGTYYADSVKGRFTISRDNAKNTVYLQMNSLKPEDTAVYYCNARYGNESQGWEDYWGQGTQVTVSS” stands “low polyreactivity”; under “QVQLVESGGGLVQAGGSLRLSCAASGSILWLYAMGWYRQAPGKERELVAAISGSGRTNYADSVKGRFTISRDNAKNTVYLQMNSQKPEDTAVYYCARVHGTSESKYYYWGQGTQVTVSL”, “low polyreactivity”; under “QVQLVESGGGLVQAGGSLRLSCAASGSILWLYVMGWYRQAPGKERELVATITSSGGSTYYADSVKGRFTISRDNAKNTVYLQMNSLKPEDTAVYYCAAQTYYSYDYWGQGTQVTVSS”, “low polyreactivity”.

For “QVQLVESGGGLVQAGGSLRLSCAASGSILYNNAMGWYRQAPGKERELVAAIDLSTGSTYYADSVKGRFTISRDNAKNTVYLQMNSLKPEDSSVYYCAAGKPLGSSTKYRPYDYWGQGTQVTVSS”, the “polyreactivity (PSR sort gate)” value is on record as “low polyreactivity”. Under “QVQLVESGGGLVQAGGSLRLSCAASGSILYSYTMGWYRQAPGKERELVAAINRGGRTNYADSVKGRFTISRDNAKNTVYLQMNSLKPEDTAVYYCNTGIYAWSWRRAMDYWGQGTQVTVSS” stands “high polyreactivity”; under “QVQLVESGGGLVQAGGSLRLSCAASGSILYVNAMGWYTQEPGKERELVAAITVSGGSTYYADSVKGRFTISRDNAKNTVYLQMNSLKPEDTAVFYCAAPALGNYFYGYDYCGQGTQVTVSS”, “low polyreactivity”. On to “QVQLVESGGGLVQAGGSLRLSCAASGSILYVYAMGWYRQAPGKERELVATITGRVVSTNYADSVKGRFTISRDNAKNTVYLQMNSLKPEDTAVYYCAARTRRRRGEYDYWGQGTQVTVSS”, for which the “polyreactivity (PSR sort gate)” value is “high polyreactivity”. The value for “QVQLVESGGGLVQAGGSLRLSCAASGSILYVYAMGWYRQAPGKERELVATITGRVVSTNYADSVKGRLTISRDNAKNTVYLQMNSLKPEDTAVYYCAARTRRRRGEYDYWGQGTQVTVSS” was “high polyreactivity”. Under “QVQLVESGGGLVQAGGSLRLSCAASGSINNRNAMGWYIQAPGKERELVAAITRRGGSTYYADSVKGRFTISRDNAKNTVYLQMNSLKPEETAVYYFNAVKGLSSWSYEYWGQGSQVTVSS” stands “high polyreactivity”; under “QVQLVESGGGLVQAGGSLRLSCAASGSIQARYAMGWYRQAPGKERELVASITTSGDSTYYADSVKGRFTISRDNAKNTVYLQMNSLKPEDTAVSYCARRRWGWGYQHFPYYYWGQGTQVTVSS”, “high polyreactivity”. Under “QVQLVESGGGLVQAGGSLRLSCAASGSIQTRNAMGWYRQAPGKERELVAAITGSGGRTYYADSVKGRFTISRDNAKNTVYLQMNSLKPEDTAVYYCATRYGREDYWGQVTQVTVSS” stands “high polyreactivity”. As for “QVQLVESGGGLVQAGGSLRLSCAASGSIQYYAMGWYRQEPGKERELVAAIRFSGGRTYYADSVKGRFTISRDNAKNTVYLQMNSLKPEETAVYYCAAYRSPRRSGAPSQGKFDYWGQVTQVTVSS”, the “polyreactivity (PSR sort gate)” value is on record as “high polyreactivity”. On to “QVQLVESGGGLVQAGGSLRLSCAASGSIRSYAMGWYRQSPGKERELVAAITRSGGSTYYADSVKGRFTISRDNAKNSVYLQMNSLKPEDTAVYYCAAEVRGKSRSTRVSYRYDYWGQGTQVTVSS”, for which the “polyreactivity (PSR sort gate)” value is reported as “high polyreactivity”. “QVQLVESGGGLVQAGGSLRLSCAASGSIRYYVKGWYRQAPGKERELVAGINWSGGSTYYADSVKGRFTISRDNAKNTVYLQMNSLKPEDTAVYYCAARFVGVRDGYYYWGQGTQVTLSS”: the “polyreactivity (PSR sort gate)” value is “high polyreactivity”. Under “QVQLVESGGGLVQAGGSLRLSCAASGSISAPNAMGWYRQAPGKERALVATINSGGRTNYADSVKGRFTISRDNAKNTVYFQMNSLKPEDTAVYYCNTVVRGAYTYGDVSKYDYWGHGTQVTVSS” stands “low polyreactivity”.
